Results on 25 sequences are retold here after the supplement of paper PMC10201428.

Data set [1] concerns VchCAST RNA-guided transposition machinery (E. coli BL21(DE3) host, lacZ target). As to the kind of experiment: relative integration efficiency (T-LR orientation) vs wild-type transposon end (log2 (normalized fold change)); transposon end mutated: right end (5 bp flank + 75 bp right end); higher = more efficient transposition. An outline of the steps: (§1)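 Barcoded pools of 1549 left-end or 1849 right-end transposon variants were cloned into a pUC57 mini-transposon donor. Each pool was co-transformed with a T7-driven effector plasmid (CRISPR array, tniQ-cas8-cas7-cas6, tnsA-tnsB-tnsC) into E. coli BL21(DE3) and plated with 0.1 mM IPTG at 37°C for 18 h. Input plasmids and genomic integration junctions were PCR-amplified and Illumina-sequenced, with two biological output replicates and four wild-type barcodes as reference. Relative integration efficiency is output/input barcode abundance fold change, normalised to wild-type barcodes and log-transformed.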

The test system is the same in data set [2]. Description: relative integration efficiency (T-RL orientation) vs wild-type transposon end (log2 (normalized fold change)); transposon end mutated: right end (5 bp flank + 75 bp right end); higher = more efficient transposition. An outline of the steps: as §1

± gives the standard deviation of the averaged measurements. Where only a bound is given, the exact number is not on record here.

With “ACATTTCTTGATACAACCATAAAATGATAATTACACCCATAAATGGATCATTATCACACCCAATTTAACTATAACGCTCTGATCATAGTCAGACCAACATTGCTACGACCCGTATTCGCACCGACAC”, the entries for the “relative integration efficiency (log2)” value in data set [1] and in data set [2] were 0.00332 ± 0.054 and -2.34 ± 0.22, respectively.

In the case of “ACATTTCTTGATACAACCATAAAATGATAATTACACCCATAAATTCATAATTATCACACCCAATTTAACTATAACGCTCTGATCATAGTCAGACCAACATTGCTACGACCCGTATTCGCACCGACAC”, the “relative integration efficiency (log2)” value in data set [1] is -0.103 ± 0.73; in data set [2], -2.79 ± 0.24.

Turning to “ACATTTCTTGATACAACCATAAAATGATAATTACACCCATAAATTCATCATTATCACACCCAATTTAACTATAACGCTCTGATCATAGTCAGACCAACATTGCTACGACCCGTATTCGCACCGACAC”, the “relative integration efficiency (log2)” value in data set [1] was 0.193 ± 0.077; in data set [2], -2.84 ± 0.46.

With “ACATTTCTTGATACAACCATAAAATGATAATTACACCCATAAATTGATCATTATCACACCCAATTTAACTATAACGCTCTGATCATAGTCAGACCAACATTGCTACGACCCGTATTCGCACCGACAC”, the “relative integration efficiency (log2)” value is 1.34 ± 0.11 in data set [1] and -1.92 ± 0.52 in data set [2].

Regarding “ACATTTGAAGATACAACCATAAAATGATAATTACACCCATAAATTGATAATTATCACACCCATAAATTGATATTGCCTCTGATCATAGTCAGACCAACATTGCTACGACCCGTATTCGCACCGACAC”, the “relative integration efficiency (log2)” value in data set [1] is -0.786 ± 0.12; in data set [2], -0.132 ± 0.019.

Turning to “ACATTTGATGATACAACCATATAATGATAATAACACCCATAAAATGATAATTATCACACCCAATTTAACTATAACGCTCTGATCATAGTCAGACCAACATTGCTACGACCCGTATTCGCACCGACAC”, the “relative integration efficiency (log2)” value in data set [1] is 1.073 ± 0.0088; in data set [2], -1.61 ± 0.26.

Turning to “ACATTTGATGATACTACCATTTAATGATAATAACACCCATAAAATGATAATTATCACACCCAATTTAACTATAACGCTCTGATCATAGTCAGACCAACATTGCTACGACCCGTATTCGCACCGACAC”, the “relative integration efficiency (log2)” value in data set [1] is -0.158 ± 0.16; in data set [2], -2.14 ± 0.37.

As to “ACATTTGATGATAGAACCATTTAATGATAATAACACCCATAAAATGATAATTATCACACCCAATTTAACTATAACGCTCTGATCATAGTCAGACCAACATTGCTACGACCCGTATTCGCACCGACAC”, the “relative integration efficiency (log2)” value in data set [1] was -0.836 ± 0.44; in data set [2], -2.75 ± 0.52.

Regarding “ACATTTGCTGATACAACCATATAATGATAATAACACCCATAAAATGATAATTATCACACCCAATTTAACTATAACGCTCTGATCATAGTCAGACCAACATTGCTACGACCCGTATTCGCACCGACAC”, the “relative integration efficiency (log2)” value in data set [1] was 0.121 ± 0.33; in data set [2], -2.08 ± 0.55.

For the sequence “ACATTTGCTGATACTACCATATAATGATAATAACACCCATAAAATGATAATTATCACACCCAATTTAACTATAACGCTCTGATCATAGTCAGACCAACATTGCTACGACCCGTATTCGCACCGACAC”, the figures for the “relative integration efficiency (log2)” value in data set [1] and in data set [2] were -0.422 ± 0.19 and -2.27 ± 0.43, respectively.

Turning to “ACATTTGCTGATACTACCATATAATGATAATAACACCCCTAAAATGATAATTATCACACCCAATTTAACTATAACGCTCTGATCATAGTCAGACCAACATTGCTACGACCCGTATTCGCACCGACAC”, the results for the “relative integration efficiency (log2)” value in data set [1] and in data set [2] were -2.64 ± 0.76 and -4.12 ± 0.62, respectively.

For “ACATTTGCTGATACTACCATTTAATGATAATAACACCCATAAAATGATAATTATCACACCCAATTTAACTATAACGCTCTGATCATAGTCAGACCAACATTGCTACGACCCGTATTCGCACCGACAC”, the “relative integration efficiency (log2)” value in data set [1] was -0.487 ± 0.3; in data set [2], -2.31 ± 0.44.

As to “ACATTTGCTGATACTACCATTTAATGATAATAACACCCCTAAAATGATAATTATCACACCCAATTTAACTATAACGCTCTGATCATAGTCAGACCAACATTGCTACGACCCGTATTCGCACCGACAC”, the “relative integration efficiency (log2)” value was -4.07 ± 0.06 in data set [1] and -4.9716 ± 0.0047 in data set [2].

For the sequence “ACATTTGCTGATAGAACCATATAATGATAATAACACCAATAAAATGATAATTATCACACCCAATTTAACTATAACGCTCTGATCATAGTCAGACCAACATTGCTACGACCCGTATTCGCACCGACAC”, the figures for the “relative integration efficiency (log2)” value in data set [1] and in data set [2] were -2.34 ± 0.35 and -3.5 ± 0.17, respectively.

Regarding “ACATTTGCTGATAGAACCATATAATGATAATAACACCCATAAAATGATAATTATCACACCCAATTTAACTATAACGCTCTGATCATAGTCAGACCAACATTGCTACGACCCGTATTCGCACCGACAC”, the “relative integration efficiency (log2)” value in data set [1] was -1.38 ± 0.21; in data set [2], -2.94 ± 0.33.

Consider “ACATTTGCTGATAGAACCATTTAATGATAATAACACCAATAAAATGATAATTATCACACCCAATTTAACTATAACGCTCTGATCATAGTCAGACCAACATTGCTACGACCCGTATTCGCACCGACAC”, for which the entries for the “relative integration efficiency (log2)” value in data set [1] and in data set [2] were -2.93 ± 0.82 and -4.53 ± 0.5, respectively.

Take “ACATTTGCTGATAGAACCATTTAATGATAATAACACCCATAAAATGATAATTATCACACCCAATTTAACTATAACGCTCTGATCATAGTCAGACCAACATTGCTACGACCCGTATTCGCACCGACAC”: the “relative integration efficiency (log2)” value in data set [1] was -2.38 ± 0.95; in data set [2], -3.66 ± 0.41.

On to “ACATTTGGGGATACAACCATAAAATGATAATTACACCCATAAATTGATAATTATCACACCCATAAATTGATATTGCCTCTGATCATAGTCAGACCAACATTGCTACGACCCGTATTCGCACCGACAC”, for which the results for the “relative integration efficiency (log2)” value in data set [1] and in data set [2] were -5.49 ± 0.94 and -6.43 ± 0.081, respectively.

As to “ACATTTGGGTCTACAACCATAAAATGATAATTACACCCATAAATTGATAATTATCACACCCATAAATTGATATTGCCTCTGATCATAGTCAGACCAACATTGCTACGACCCGTATTCGCACCGACAC”, the “relative integration efficiency (log2)” value in data set [1] is -4.93 ± 0.96; in data set [2] it was -7.19 ± 1.1.

Regarding “ACATTTGGTGATACAACCATATAATGATAATAACACCCATAAAATGATAATTATCACACCCAATTTAACTATAACGCTCTGATCATAGTCAGACCAACATTGCTACGACCCGTATTCGCACCGACAC”, the “relative integration efficiency (log2)” value in data set [1] is -3.69 ± 0.97; in data set [2], -6.35 ± 0.32.

As for “ACATTTGTAAAAAAAACCATACGTTGATTTTACGAAACCATACGCTGAAATAAAAACAACCATACCTTGAAATTGCCTCTGATCATAGTCAGACCAACATTGCTACGACCCGTATTCGCACCGACAC”, the “relative integration efficiency (log2)” value in data set [1] is -4.82 ± 1.9; in data set [2], -6.84 ± 0.49.

As for “ACATTTGTAAAAAAAACCATACGTTGATTTTACGAAACCATACGCTGAAATAAAAACAACCATACCTTGAAATTGCTTATAAAGTGTACAACACTTGAGAAAGTTTACTACAGGTATGCACCGACAC”, the “relative integration efficiency (log2)” value is below -10 in data set [1] and -7.441 ± 0.019 in data set [2].

As to “ACATTTGTAAAAAAAACCATACGTTGATTTTACGAAACCATACGCTGAAATAATCACAACCATAAATTGAAATTGCCTCTGATCATAGTCAGACCAACATTGCTACGACCCGTATTCGCACCGACAC”, the “relative integration efficiency (log2)” value in data set [1] is -6.41 ± 1.9; in data set [2], -6.99 ± 0.21.

In the case of “ACATTTGTAAAAAAAACCATACGTTGATTTTACGAAACCATACGCTGAAATAATCACAACCATAACTTGAAATTGCCTCTGATCATAGTCAGACCAACATTGCTACGACCCGTATTCGCACCGACAC”, the “relative integration efficiency (log2)” value in data set [1] was below -10; in data set [2], -6.63 ± 1.2.

Regarding “ACATTTGTAAAAAAAACCATACGTTGATTTTACGAAACCATACGCTGAAATAATCACAACCATACATTGAAATTGCCTCTGATCATAGTCAGACCAACATTGCTACGACCCGTATTCGCACCGACAC”, the “relative integration efficiency (log2)” value is -4.99 ± 1 in data set [1] and -6.97 ± 0.31 in data set [2].
